Measurements as given in patent US20210361653.

Molecular target: His-BRD4-N (amino acids 1-500), O60885

B1: GST-SPOP (protein)
chain: MSRVPSPPPPAEMSSGPVAESWCYTQIKVVKFSYMWTINNFSFCREEMGEVIKSSTFSSGANDKLKWCLRVNPKGLDEESKDYLSLYLLLVSCPKSEVRAKFKFSILNAKGEETKAMESQRAYRFVQGKDWGFKKFIRRDFLLDEANGLLPDDKLTLFCEVSVVQDSVNISGQNTMNMVKVPECRLADELGGLWENSRFTDCCLCVAGQEFQAHKAILAARSPVFSAMFEHEMEESKKNRVEINDVEPEVFKEMMCFIYTGKAPNLDKMADDLLAAADKYALERLKVMCEDALCSNLSVENAAEILILADLHSADQLKTQAVDFINYHASDVLETSGWKSMVVSHPHLVAEAYRSLASAQCPFLGPPRKRLKQS
in vitro ubiquitination assay: The SPOP-CULLIN3-RBX1 complex was shown to catalyzed BRD4 ubiquitination in vitro
